Here are results for 120 sequences from the supplement of paper PMC10126150.

± gives the standard deviation of the averaged measurements.

The data set has as its system ATP. The data set is described as follows: switch fluorescence ratio, 500 uM ATP over buffer (Cy3 cluster intensity, sum of 5 cycles each) (fold (ratio)); higher = stronger signal-on switching upon ATP binding; sequences stand for … in TCGTCGGCAGCGTCAGATGTGTATAAGAGACAGTTTTTTTTTTTTTTTTTTTTTTTTT…TC. The conditions noted are these: aptamer strand: ATP DNA aptamer (quencher-CACCTGGGGGAGTATTGCGGAGGAAGG + anchor), 100 nM annealed; ATP concentration: 500 uM. In a few lines:
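For every switch-domain sequence, the fluorescence ratio is the mean of per-cluster values, each being summed target-cycle Cy3 intensity over summed buffer-cycle Cy3 intensity. Clusters outside 100-1000 RFU were excluded. On a modified Illumina MiSeq flow-cell, the Cy3-labelled switching-strand clusters were annealed to 100 nM quencher-labelled ATP aptamer, imaged in selection buffer and then after 15 min with 500 uM ATP at 22 °C. Five such cycles were run, with NaOH stripping and re-annealing between them.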
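Further: ATP exposure 15 min at 22 °C before imaging.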

As for CGATTTACTT, the switch fluorescence ratio stood at 1.02 ± 0.04. In the case of GTTTAAAATC it was 0.99757 ± 0.00014.

For the sequence TCGGGAAGAG, the switch fluorescence ratio worked out at 0.98832 ± 5e-05. In the case of CAGGTTTTGG, the switch fluorescence ratio came to 0.964 ± 0.034. In the case of TCACGTTAAT it was 1.2 ± 0.058; in that of CGATTGCATT, 1.27 ± 0.045. In the case of TTCGTACGAG it was 1 ± 0.026; in that of CCGCCATTGG, 1.62 ± 0.069.

As to CCTGAGTCTG, the switch fluorescence ratio is 1.57 ± 0.038. In the case of ATTTCTAGAT it was 1.024 ± 0.0093; in that of CAGGGATGTG, 1.03 ± 0.013.

Regarding ATAAGTGTTG, the switch fluorescence ratio came to 0.979 ± 0.017. In the case of CGCTTGGTCG it was 1.03 ± 0.016. In the case of ATCCAGGGTA it was 1.01 ± 0.03; in that of ATCTTCGGTT, 1 ± 0.055; in that of TGTATTATGT, 1.002 ± 0.004. In the case of TTATGAAGAT it was 0.963 ± 0.029. Take GTGACCCCTA: the switch fluorescence ratio came to 1.13 ± 0.063. In the case of CGGGCGGCGG it was 0.9921 ± 0.0076. For TATCATGGGA, the switch fluorescence ratio was determined as 0.9982 ± 0.0087.

Consider ATTTGTGAAC, for which the switch fluorescence ratio turned out to be 1.02 ± 0.024. In the case of TGTGTACCGG it was 1.01 ± 0.028; in that of CCATGGTTGT, 1.011 ± 0.005; in that of CTCCGAGGGG, 1.31 ± 0.21. In the case of GTTGGGTTTT, the switch fluorescence ratio worked out at 1.02 ± 0.06.

As to AATTGAAGTG, the switch fluorescence ratio amounted to 1.022 ± 0.01.

CGGAACGAGA: the switch fluorescence ratio came to 0.983 ± 0.025. In the case of AGAGAAGTGA it was 0.986 ± 0.032. In the case of GTAGGACGGG it was 0.995 ± 0.012; in that of AAACTATAGA, 1.01 ± 0.054. In the case of AGCTATAAGG it was 0.982 ± 0.021; in that of AGTTATCTTA, 1.02 ± 0.011; in that of TTTTTTGC, 0.955 ± 0.011. For TGACGGGGTA, the switch fluorescence ratio turned out to be 1.04 ± 0.12.

Turning to GTGTGATCTC, the switch fluorescence ratio amounted to 0.992 ± 0.046. With CCGAATAGTT, the switch fluorescence ratio was 1.18 ± 0.14. As for CGCTCTTTTG, the switch fluorescence ratio is 1.02 ± 0.061.

Consider AGGTTGCGAT, for which the switch fluorescence ratio came out at 1.01 ± 0.013. In the case of CAGGCGAGGG it was 0.9905 ± 0.0078; in that of AAAAGCGATC, 1.14 ± 0.038. With TGGGGAAGTT, the switch fluorescence ratio came out at 1 ± 0.034. In the case of AAAGAACCG it was 1.085 ± 0.0014; in that of GGGGGCTTCG, 0.992 ± 0.048. In the case of GCTGATGCGG it was 0.999 ± 0.012.

For the sequence GATACAGCTA, the switch fluorescence ratio came out at 1.03 ± 0.042.

As to CAGTTTGCTG, the switch fluorescence ratio was determined as 0.979 ± 0.018.

Consider AAAGCGGTTG, for which the switch fluorescence ratio stood at 0.98 ± 0.012.

For AAAAAGTGGG, the switch fluorescence ratio is 0.992 ± 0.039. Regarding AGGGGATCAA, the switch fluorescence ratio is 0.985 ± 0.015.

Consider TATAAGCTAG, for which the switch fluorescence ratio is 1.03 ± 0.017. In the case of GGATATCGTT it was 1.032 ± 0.0059; in that of TGTTGTTGGT, 1.017 ± 0.00011; in that of GAGATTGGAA, 1.002 ± 0.0025.

As to ACCGGGGGCT, the switch fluorescence ratio amounted to 1.034 ± 0.0052. For CGTAAAGTAG, the switch fluorescence ratio came out at 1.01 ± 0.022. In the case of TTTTGAAATT it was 1 ± 0.046. For AGTTCAGGGC, the switch fluorescence ratio came out at 1.003 ± 0.004. In the case of GGGCAGAGGC it was 1.06 ± 0.029; in that of CAATTTTTAA, 0.9798 ± 0.0088. In the case of ATGCTGGGTC it was 0.973 ± 0.028.

As to ACCACCTTAC, the switch fluorescence ratio came out at 2.32 ± 0.29.

Turning to TGATAGGTGG, the switch fluorescence ratio came out at 1 ± 0.028.

Consider GTTATCGGAC, for which the switch fluorescence ratio is 1.01 ± 0.015.

On to GTACTATCTC, for which the switch fluorescence ratio amounted to 0.998 ± 0.046. Take TAATTGGGTG: the switch fluorescence ratio amounted to 1.09 ± 0.031. In the case of GCGCACCTTT it was 1.01 ± 0.029; in that of TGAATCAGG, 1.01 ± 0.073; in that of GAACTGATAA, 1.16 ± 0.2. In the case of GTCGCTGTGG it was 1.04 ± 0.0021; in that of GAAAAGCAGG, 0.989 ± 0.025. As for AGCGAGGGGC, the switch fluorescence ratio amounted to 1.02 ± 0.035.

Take GATTAAAGCT: the switch fluorescence ratio was determined as 1.11 ± 0.039.

Regarding GCTCATAGCA, the switch fluorescence ratio was found to be 1.02 ± 0.022.

Turning to TTATTCAGGA, the switch fluorescence ratio was determined as 1.01 ± 0.029. For the sequence GCCAGTGTTT, the switch fluorescence ratio amounted to 1.02 ± 0.056. In the case of TTTAGGATTG, the switch fluorescence ratio is 0.98 ± 0.034.

As to TACGAAATTG, the switch fluorescence ratio worked out at 1.06 ± 0.049.

Take CCATTCTTGT: the switch fluorescence ratio was found to be 1.04 ± 0.022. In the case of TAGTGTCGGA it was 0.9914 ± 0.0035. In the case of TTGTTCGAGG it was 0.988 ± 0.026; in that of CAAATTTCAT, 0.985 ± 0.023; in that of CCTGTAGTTG, 1.04 ± 0.037. In the case of AGTTGTAGTT it was 0.972 ± 0.041; in that of TTTTAGCAGA, 1.06 ± 0.016. For TGGGGTATTG, the switch fluorescence ratio was determined as 0.974 ± 0.012. For the sequence GGTAGATTTT, the switch fluorescence ratio came to 0.9792 ± 0.003. As to GTAATTGTTA, the switch fluorescence ratio was determined as 1 ± 0.015.

As for CTGTAGAAGA, the switch fluorescence ratio was determined as 1.05 ± 0.032. In the case of ATATTTACTA it was 1.11 ± 0.11.

With TTGTAGAAAA, the switch fluorescence ratio was 1.3 ± 0.37. In the case of AAAGGGGACC it was 1.09 ± 0.053; in that of GGATTTTTGT, 0.997 ± 0.022. For the sequence GCTATCTGGA, the switch fluorescence ratio was 0.998 ± 0.031. In the case of ACGGAAAACA it was 1.019 ± 0.0039; in that of GGCCGAGAGG, 0.993 ± 0.053. As to TGGGGCAGGT, the switch fluorescence ratio came to 0.997 ± 0.051.

On to ATCGATGCTT, for which the switch fluorescence ratio turned out to be 0.979 ± 0.012. Take TCGACGGGTG: the switch fluorescence ratio was 1.02 ± 0.043. On to AAAGGCCCGT, for which the switch fluorescence ratio is 1 ± 0.0077.

Take AAAGGCGCTG: the switch fluorescence ratio came to 0.984 ± 0.041.

As for CCTTACATCG, the switch fluorescence ratio came out at 1.12 ± 0.044. As to GATTTTCGCG, the switch fluorescence ratio was 1.02 ± 0.037. Take CAGTGTCCGC: the switch fluorescence ratio was 1.07 ± 0.018. In the case of TACCTAAACG it was 1.08 ± 0.033; in that of GGTGGGGTGT, 0.982 ± 0.05; in that of TAAAGGAGTT, 0.981 ± 0.032.

Take CGTGAAAGG: the switch fluorescence ratio stood at 0.9546 ± 0.0042.

For AGGGCCGTTG, the switch fluorescence ratio turned out to be 0.996 ± 0.035. For the sequence GGTTCCAAAA, the switch fluorescence ratio was 1.02 ± 0.029.

Regarding AAAGTTGTCG, the switch fluorescence ratio was found to be 0.969 ± 0.051. As for CTAAATTTTA, the switch fluorescence ratio came to 0.989 ± 0.019. In the case of GGGCATAGAT it was 1.03 ± 0.05. Consider GACCCGTCCA, for which the switch fluorescence ratio stood at 0.995 ± 0.024.

Turning to CCTTCTTTTT, the switch fluorescence ratio turned out to be 1.06 ± 0.12. On to CTAAGATAGG, for which the switch fluorescence ratio stood at 1.01 ± 0.029. Turning to CGATAAAGGT, the switch fluorescence ratio was 1.016 ± 0.0095. In the case of AGTATGAGGG it was 1 ± 0.076. Turning to TATAAAAAAA, the switch fluorescence ratio is 1.02 ± 0.051.

On to ACATACTTTA, for which the switch fluorescence ratio amounted to 1.32 ± 0.015. In the case of CTCGGGCATT, the switch fluorescence ratio is 1.23 ± 0.052.
